According to patent publication US20240417458A1 (DISC MEDICINE, published 2024):
Changes are numbered by the printed parent chain. Names and notes keep the numbering of the source. Values joined by “and” are separate entries in the source; they are usually repeats but may differ in a detail not shown here. Equal values may be shown once.

Legend:
soluble human RGMa [1] = biological target: T1, soluble human RGMa (human, UniProt Q96B86 48-422, limits assumed); assay: SPR (BIAcore);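 also: Anti-HJV antibodies tested for binding against soluble human RGMa by surface plasmon resonance on a BIAcore instrument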
T1 construct: Soluble antigen in BIAcore; also called huRGMa; repulsive guidance molecule A
T1 sequence (looked up): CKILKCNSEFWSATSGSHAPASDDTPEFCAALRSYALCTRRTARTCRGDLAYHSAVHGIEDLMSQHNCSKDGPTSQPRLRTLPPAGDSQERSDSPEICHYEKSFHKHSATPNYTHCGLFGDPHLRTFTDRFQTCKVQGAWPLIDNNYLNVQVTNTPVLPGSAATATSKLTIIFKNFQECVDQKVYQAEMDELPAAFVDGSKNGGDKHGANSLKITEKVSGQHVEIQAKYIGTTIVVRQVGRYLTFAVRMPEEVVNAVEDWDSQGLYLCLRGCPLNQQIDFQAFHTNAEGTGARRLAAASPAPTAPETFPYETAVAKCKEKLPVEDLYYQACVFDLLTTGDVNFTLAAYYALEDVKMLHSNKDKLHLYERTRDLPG
Experimental: (§1) Binding affinities of the anti-HJV antibodies to soluble human RGMa, Rat RGMa and human RGMc were measured by BIAcore analysis.

soluble rat RGMa = biological target: T2, soluble rat RGMa (rat, UniProt D4A188 48-421); assay: SPR (BIAcore);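 also: binding kinetics and affinity of anti-HJV antibodies toward soluble rat RGMa, determined by SPR on a BIAcore instrument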
T2 construct: Soluble antigen in BIAcore
T2 sequence: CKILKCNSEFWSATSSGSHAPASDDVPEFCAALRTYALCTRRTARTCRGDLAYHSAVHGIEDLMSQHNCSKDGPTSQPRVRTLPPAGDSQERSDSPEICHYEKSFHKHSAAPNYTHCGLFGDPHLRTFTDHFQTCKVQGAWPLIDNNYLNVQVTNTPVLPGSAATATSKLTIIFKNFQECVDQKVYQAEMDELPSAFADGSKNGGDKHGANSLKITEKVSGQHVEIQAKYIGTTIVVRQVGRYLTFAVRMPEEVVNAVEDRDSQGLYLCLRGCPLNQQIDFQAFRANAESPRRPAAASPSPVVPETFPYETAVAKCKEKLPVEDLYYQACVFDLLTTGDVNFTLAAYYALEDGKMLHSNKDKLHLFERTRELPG
Experimental: as §1

soluble human RGMc [2] = biological target: T3, soluble human RGMc (human, UniProt Q6ZVN8 36-400); assay: SPR (BIAcore);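 also: Anti-HJV antibodies, binding affinity to soluble human RGMc measured by BIAcore surface plasmon resonance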
T3 construct: also called huRGMc; soluble hRGMc
T3 sequence: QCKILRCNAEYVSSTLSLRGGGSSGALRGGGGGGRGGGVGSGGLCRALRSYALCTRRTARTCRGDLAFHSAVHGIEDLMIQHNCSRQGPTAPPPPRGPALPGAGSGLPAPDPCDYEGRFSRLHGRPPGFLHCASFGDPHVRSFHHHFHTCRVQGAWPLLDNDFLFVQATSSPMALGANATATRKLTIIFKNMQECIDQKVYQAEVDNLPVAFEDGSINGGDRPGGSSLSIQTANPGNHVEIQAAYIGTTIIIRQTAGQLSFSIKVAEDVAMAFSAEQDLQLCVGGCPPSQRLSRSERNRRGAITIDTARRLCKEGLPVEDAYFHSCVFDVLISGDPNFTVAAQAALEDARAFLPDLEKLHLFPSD
Experimental: as §1

FcRn = biological target: T4, FcRn; assay: SPR (BIAcore) at pH 6.0
T4 construct: also called neonatal Fc receptor
T4 sequence (P55899 24-297, chain 1 of 2): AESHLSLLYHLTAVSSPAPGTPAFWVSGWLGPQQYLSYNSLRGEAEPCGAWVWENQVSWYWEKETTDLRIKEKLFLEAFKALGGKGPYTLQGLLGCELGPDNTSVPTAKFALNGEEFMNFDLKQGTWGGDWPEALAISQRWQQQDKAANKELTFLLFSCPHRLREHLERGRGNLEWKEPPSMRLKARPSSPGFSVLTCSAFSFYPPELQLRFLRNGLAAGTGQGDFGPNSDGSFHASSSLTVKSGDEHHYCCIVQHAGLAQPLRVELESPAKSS
T4 sequence (P61769 21-119, chain 2 of 2, further chain): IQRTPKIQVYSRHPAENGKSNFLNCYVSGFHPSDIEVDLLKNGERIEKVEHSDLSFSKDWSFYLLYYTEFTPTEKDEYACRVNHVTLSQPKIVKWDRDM

soluble human RGMa [3] = biological target: T1, soluble human RGMa; assay: SPR; method not named in Example 2
soluble human RGMc [4] = biological target: T3, soluble human RGMc; assay: SPR; method not named in Example 2
[5] = biological target: T5, membrane-bound human RGMc (human, UniProt Q6ZVN8 36-400); assay: cell-based or functional assay
T5 sequence: T3 sequence

[6] = biological target: T5, membrane-bound human RGMc; assay: cell-based or functional assay; remark: listed apart in the source
[7] = biological target: T5, membrane-bound human RGMc; assay: cell-based or functional assay; remark: listed apart in the source
soluble human RGMc [8] = biological target: T3, soluble human RGMc; assay: SPR (BIAcore), soluble hRGMc; summary table
[9] = biological target: T6, membrane-bound human RGMa (human, UniProt Q96B86 169-424); assay: cell-based or functional assay
T6 sequence (looked up): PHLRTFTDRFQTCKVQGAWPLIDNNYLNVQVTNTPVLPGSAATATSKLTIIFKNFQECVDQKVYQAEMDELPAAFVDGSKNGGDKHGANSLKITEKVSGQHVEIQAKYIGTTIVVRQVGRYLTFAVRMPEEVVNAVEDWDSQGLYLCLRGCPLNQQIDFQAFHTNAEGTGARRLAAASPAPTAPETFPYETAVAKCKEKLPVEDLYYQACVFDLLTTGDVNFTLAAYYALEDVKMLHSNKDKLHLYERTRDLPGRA

[10] = biological target: T6, membrane-bound human RGMa; assay: cell-based or functional assay; remark: listed apart in the source
[11] = biological target: T6, membrane-bound human RGMa; assay: cell-based or functional assay; remark: listed apart in the source

B1: hHA-007 (antibody, human IgG1, kappa, L234A L235A, V domains shown)
VH: EVQLVESGGGLVQPGGSLRLSCAASGFTFSNYGMNWIRQAPGKGLEWIGMIYYDSSDKHYADSVKGRFTISRDNSKNTLYLQMNSLRAEDTAVYYCAKGTTPDVWGQGTMVTVSS
VL: DVVLTQSPLSLPVTLGQPASISCRSSQSLEESDGYTFLHWFQQRPGQSPRLLIYEVSNRFSGVPDRFSGSGSGTDFTLKISRVEAEDVGVYYCFQATHDPVTFGQGTKLEIKR
notes: hIgG1 L234A, L235A, kappa
For B1, the Kd (soluble human RGMa [1]) was 0.15 nM, the koff (soluble human RGMa [1]) was 8.9e-05 s⁻¹ and the kon (soluble human RGMa [1]) was 590000 M⁻¹ s⁻¹. It also gave a Kd (soluble rat RGMa) of under 0.002 nM, a koff (soluble rat RGMa) of under 1e-06 s⁻¹ and a kon (soluble rat RGMa) of 510000 M⁻¹ s⁻¹. It also gave a Kd (soluble human RGMc [2]) of 0.425 nM, a koff (soluble human RGMc [2]) of 0.00215 s⁻¹ and a kon (soluble human RGMc [2]) of 5.05e+06 M⁻¹ s⁻¹.

B2: hHA-008-QL (antibody, human IgG1, kappa, L234A L235A)
heavy: EVQLVESGGGLVQPGGSLRLSCAASGFTFSNYGMNWVRQAPGKGLEWIGMIYYDSSEKHYADSVKGRFTISRDNSKNTLYLQMNSLRAEDTAVYYCAKGTTPDYWGQGTMVTVSSASTKGPSVFPLAPSSKSTSGGTAALGCLVKDYFPEPVTVSWNSGALTSGVHTFPAVLQSSGLYSLSSVVTVPSSSLGTQTYICNVNHKPSNTKVDKKVEPKSCDKTHTCPPCPAPEAAGGPSVFLFPPKPKDQLMISRTPEVTCVVVDVSHEDPEVKFNWYVDGVEVHNAKTKPREEQYNSTYRVVSVLTVLHQDWLNGKEYKCKVSNKALPAPIEKTISKAKGQPREPQVYTLPPSREEMTKNQVSLTCLVKGFYPSDIAVEWESNGQPENNYKTTPPVLDSDGSFFLYSKLTVDKSRWQQGNVFSCSVLHEALHNHYTQKSLSLSPGK
light: DVVLTQSPLSLPVTLGQPASISCRSSQSLEESDGYTFLHWFQQRPGQSPRLLIYEVSTRFSGVPDRFSGSGSGTDFTLKISRVEAEDVGVYYCFQATHDPLTFGQGTKLEIKRTVAAPSVFIFPPSDEQLKSGTASVVCLLNNFYPREAKVQWKVDNALQSGNSQESVTEQDSKDSTYSLSSTLTLSKADYEKHKVYACEVTHQGLSSPVTKSFNRGEC
notes: hHA-008 with T250Q and M428L (QL) in the Fc besides L234A, L235A; kappa; also called hHA-008-QL (hIgG1mut(LALA)/QL/k)
For B2, the Kd (FcRn) was 900 nM and 882 nM, the Kd (soluble human RGMa [3]) was 0.077 nM and the koff (soluble human RGMa [3]) was 3.3e-05 s⁻¹. It also gave a kon (soluble human RGMa [3]) of 430000 M⁻¹ s⁻¹, a Kd (soluble human RGMc [4]) of 0.12 nM and a koff (soluble human RGMc [4]) of 0.00033 s⁻¹. It also gave a kon (soluble human RGMc [4]) of 2.7e+06 M⁻¹ s⁻¹.

B3: hHA-009 (antibody, human IgG1, kappa, L234A L235A, V domains shown)
VH: B1 VH with I37V, D57E, V104Y
VL: B1 VL with E30A, E31D, Y35D, E55A, N58H
notes: hIgG1 L234A, L235A, kappa
With B3 the Kd (soluble human RGMa [1]) was 0.47 nM, the koff (soluble human RGMa [1]) was 0.0004 s⁻¹ and the kon (soluble human RGMa [1]) was 860000 M⁻¹ s⁻¹. The Kd (soluble rat RGMa) was 0.31 nM, the koff (soluble rat RGMa) was 0.00021 s⁻¹ and the kon (soluble rat RGMa) was 680000 M⁻¹ s⁻¹. The Kd (soluble human RGMc [2]) was 0.71 nM, the koff (soluble human RGMc [2]) was 0.0107 s⁻¹ and the kon (soluble human RGMc [2]) was 1.55e+07 M⁻¹ s⁻¹. For the same binder, the “IC50 (nM), BMP reporter assay for RGMc (BRE-Luc, HEK293)” value [5] was 1.36 nM, the “Potency on membrane hRGMc (RGMc/BMP reporter assay), IC50” value [6] was 1.36 nM and the “IC50 (read off the curve)” value [7] was about 2 nM. It also gave a Kd (soluble human RGMc [8]) of 0.71 nM, a koff (soluble human RGMc [8]) of 0.0107 s⁻¹ and a kon (soluble human RGMc [8]) of 1.55e+07 M⁻¹ s⁻¹.

B4: hHA-010 (antibody, human IgG1, kappa, L234A L235A, V domains shown)
VH: B1 VH with I37V, D57E, V104K
VL: B1 VL with H39E, N58H, V101L
notes: hIgG1 L234A, L235A, kappa
B4 was tested, and the Kd (soluble human RGMa [1]) was 0.12 nM, the koff (soluble human RGMa [1]) was 0.0001 s⁻¹ and the kon (soluble human RGMa [1]) was 850000 M⁻¹ s⁻¹. For the same binder, the Kd (soluble rat RGMa) was 0.039 nM, the koff (soluble rat RGMa) was 2.6e-05 s⁻¹ and the kon (soluble rat RGMa) was 660000 M⁻¹ s⁻¹. For the same binder, the Kd (soluble human RGMc [2]) was 0.445 nM, the koff (soluble human RGMc [2]) was 0.0044 s⁻¹ and the kon (soluble human RGMc [2]) was 9.9e+06 M⁻¹ s⁻¹.

B5: hHA-011 (antibody, human IgG1, kappa, L234A L235A, V domains shown)
VH: B1 VH with I37V, D57E, T100S, V104Y
VL: B1 VL with E31D, Y35G, H39E, E55D, N58S, V101L, T102S
notes: hIgG1 L234A, L235A, kappa
In the case of B5, the Kd (soluble human RGMa [1]) is reported as 0.11 nM, the koff (soluble human RGMa [1]) is reported as 9.9e-05 s⁻¹ and the kon (soluble human RGMa [1]) is reported as 930000 M⁻¹ s⁻¹. The Kd (soluble rat RGMa) was 0.074 nM, the koff (soluble rat RGMa) was 5.2e-05 s⁻¹ and the kon (soluble rat RGMa) was 700000 M⁻¹ s⁻¹. The Kd (soluble human RGMc [2]) was 0.285 nM, the koff (soluble human RGMc [2]) was 0.0014 s⁻¹ and the kon (soluble human RGMc [2]) was 5.05e+06 M⁻¹ s⁻¹. The “IC50 (nM), BMP reporter assay for RGMc (BRE-Luc, HEK293)” value [5] was 0.0554 nM, the “IC50 (nM), BMP reporter assay for RGMa” value [9] was 1.66 nM and the “Potency on membrane hRGMc (RGMc/BMP reporter assay), IC50” value [6] was 0.52 nM. The “Potency on membrane hRGMa (RGMa/BMP reporter assay), IC50” value [10] was 1.7 nM, the “IC50 (read off the curve)” value [7] was about 0.5 nM and the “IC50 (read off the curve)” value [11] was about 2 nM. It also gave a Kd (soluble human RGMc [8]) of 0.285 nM, a koff (soluble human RGMc [8]) of 0.0014 s⁻¹ and a kon (soluble human RGMc [8]) of 5.05e+06 M⁻¹ s⁻¹.

B6: hHA-003 (antibody, human IgG1, kappa, L234A L235A, V domains shown)
VH: B1 VH with D57E, V104Y
VL: B1 VL with E31T, Y35D, H39E, A96V
notes: hIgG1 L234A, L235A, kappa
B6 gave a Kd (soluble human RGMa [1]) of 0.12 nM, a koff (soluble human RGMa [1]) of 0.00014 s⁻¹ and a kon (soluble human RGMa [1]) of 1.1e+06 M⁻¹ s⁻¹. It also gave a Kd (soluble rat RGMa) of 0.036 nM, a koff (soluble rat RGMa) of 3.1e-05 s⁻¹ and a kon (soluble rat RGMa) of 870000 M⁻¹ s⁻¹. For the same binder, the Kd (soluble human RGMc [2]) was 0.3 nM, the koff (soluble human RGMc [2]) was 0.0024 s⁻¹ and the kon (soluble human RGMc [2]) was 8.1e+06 M⁻¹ s⁻¹.
